Test results reported in patent US20230039401A1, “COMPOSITIONS AND METHODS FOR TREATING NRP2-ASSOCIATED DISEASES” (aTyr Pharma, Inc., priority 2018, published 2023).

Experiments:
[1] = tested on: murine bone marrow derived macrophages; assay: Efferocytosis in bone marrow derived macrophages (pHrodo-loaded apoptotic jurkat cells); type: cell-based, mouse; conditions: 100 nM for 5 days during monocyte differentiation
From the text: This study was designed to investigate the in vivo potential of test compounds to modulate efferocytosis in murine bone marrow derived macrophages. Efferocytosis refers to the process by which dying/dead cells (e.g. apoptotic or necrotic cells) are removed by phagocytic cells. During efferocytosis, the cell membrane of phagocytic cells engulfs the apoptotic cell, forming a large fluid-filled vesicle containing the dead cell. Efferocytosis can be performed not only by ‘professional’ phagocytic cells such as macrophages or dendritic cells, but also by many other cell types including epithelial cells, fibroblasts and other cells. To distinguish them from living cells, apoptotic cells carry specific ‘eat me’ signals, such as the presence of phosphatidyl serine (resulting from phospholipid flip-flop) or calreticulin on the outer leaflet of the cell membrane. […] Like phagocytosis, acidification of the endosome, is a central aspect of endosome maturation, which can be readily monitored through the use of a pH sensitive probe, as described herein.
Methods and protocol. […] Confocal images were captured in Zeiss 710 Confocal Laser Scanning Microscope equipped with 4 lasers and images were captured and analyzed using Zeiss Zen 2010 software. For quantification, the intensity of red fluorescence in each field were measured and the arithmetic mean was calculated and represented graphically.

[2] = tested on: LPS-induced leukocyte infiltration into the mouse lung; assay: Murine model of LPS-induced pulmonary inflammation; type: in vivo; conditions: single IV 3 mg/kg the day before LPS 10 μg/mouse; lavage 24 hours later
From the text: This study was designed to investigate the in vivo potential of test compounds in a murine model of neutrophil accumulation in the lung induced by airway instillation of lipopolysaccharide (LPS).
Treatment Regimen. Sixty-four (64) C57BL/6 mice (Jackson Laboratory, Bar Harbor, Me., USA, 8 week old females) were assigned to study groups of 8 mice, and housed in specific pathogen-free conditions with sterile food and water.
In brief, animals received a single intravenous injection of the vehicle of Fc-HRS(2-60) (20 mM Histidine/125 mM NaCl/10 mM Methionine/3% Sucrose/0.02% PS20, pH 6.9), Fc-HRS(2-60) (1, 3, or 10 mg/kg), or HRS(2-60)-COMP (3 mg/kg). The following day, mice were anesthetized by isoflurane inhalation and, using a gavage needle and attached syringe, 50 μL of LPS (Sigma L3024, E. coli 0111-B4, 10 μg/mouse) formulated in PBS, or PBS alone, was delivered to the back of the oral soft palate for inhalation. […]
Flow Cytometry Analysis. […] NRP2 was detected by addition of 25 μL of rabbit anti-mouse NRP2 (Cell Signaling Technology) at 10 μg/mL in FWB for 1 h in the dark on ice, and cells were then washed (data not shown). […]
Using GraphPad Prism 7, results were analyzed by one-way ANOVA followed by Dunn's multiple comparison test using the LPS/Vehicle group as the comparator. […]

B1: HRS(2-60)-COMP: pentamer of HRS(2-60): HARS aa 2-60 fused to COMP pentameric domain (aa 28-73); made His tagged; SEQ ID NO:175 without tags (protein)
chain: ERAALEELVKLQGERVRGLKQQKASAELIEEEVAKLLKLKAQLGPDESKQKFVLKTPKGGGGSGGGGSSDLGPQMLRELQETNAALQDVRELLRQQVREITFLKNTVMECDAC
modifications: His tag; Made in Lab - HRS-COMP Fusion Protein
With B1 the “efferocytosis (spectral shift of pH sensitive dye)” value [1] was “profound inhibition of efferocytosis” and the “number of airway neutrophils accumulating in response to LPS” value [2] was “significantly reduced”.
